Columns and labels:
[1] = target: BAFF (R&D Systems, 7537-BF) (UniProt Q9Y275 134-285); experiment: cell-based or functional assay
[2] = target: T1, human APRIL (5860-AP-010/CF, R&D Systems) (human, UniProt O75888 115-250, limits assumed); experiment: cell-based or functional assay
T1 sequence (looked up): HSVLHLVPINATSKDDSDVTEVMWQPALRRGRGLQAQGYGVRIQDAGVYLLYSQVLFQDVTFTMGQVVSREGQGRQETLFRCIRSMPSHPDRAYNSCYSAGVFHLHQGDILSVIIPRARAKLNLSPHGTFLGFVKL

[3] = target: T2, IL-12/23 p40 (Sino biological, 10052-H08H) (UniProt P29460 23-328); experiment: ELISA, IL-12/23 p40 coated
T2 construct: Bought protein
T2 sequence (looked up): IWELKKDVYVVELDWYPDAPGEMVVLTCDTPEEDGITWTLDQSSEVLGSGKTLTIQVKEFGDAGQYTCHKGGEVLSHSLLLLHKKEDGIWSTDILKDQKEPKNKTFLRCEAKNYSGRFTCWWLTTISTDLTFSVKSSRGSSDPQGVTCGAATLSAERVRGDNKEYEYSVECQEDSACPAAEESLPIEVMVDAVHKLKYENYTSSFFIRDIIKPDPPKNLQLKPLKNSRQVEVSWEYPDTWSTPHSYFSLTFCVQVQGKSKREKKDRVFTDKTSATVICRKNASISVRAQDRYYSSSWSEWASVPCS

[4] = target: T3, human BAFF (10056-HNCH, Sino biological) (human, UniProt Q9Y275 134-285); experiment: competition ELISA: biotin-labeled BAFF to coated BAFF-R
T3 construct: Bought protein
Method: The blocking activity of the antibodies and the fusion proteins for receptors and ligands such as BAFF/BAFF-R, BAFF/BCMA, BAFF/TACI, APRIL/BCMA, APRIL/TACI, and p40/IL-12R1 was assayed by the ELISA method. The specific procedures were as follows:
A receptor protein was diluted to 2 μg/mL with PBS at pH 7.4 (BasalMedia, B320) and added to a 96-well microplate (Corning, 3590) at 100 μL/well. The plate was incubated at 4° C. overnight. After the liquid was discarded, 200 μL of 1% Casein blocking solution (Thermo, 37528) was added to each well for blocking, and the plate was incubated at 37° C. for 2 h. After the blocking was completed, the blocking solution was discarded, and the plate was washed 3 times with a PBST buffer (PBS at pH 7.4 containing 0.1% tween-20) for later use. A biotin-labeled ligand protein at a fixed concentration was mixed with the antibody or fusion protein diluted in gradient, pre-incubated at 37° C. for 30 min, and added to a blocked microplate. The plate was incubated at 37° C. for 1.5 h. After the incubation was completed, the plate was washed 3 times with PBST. 100 μL of streptavidin-HRP (Invitrogen, 434323, diluted at a ratio of 1:4000) was added to each well, and the plate was incubated at 37° C. for 1 h. The supernatant was removed, and the plate was washed 3 times with PBST. 100 μL of TMB chromogenic substrate (KPL, 5120-0077) was added to each well, and the plate was incubated at room temperature for 10-15 min. The reaction was stopped by adding 50 μL of 1 M H₂SO₄ to each well. The plate was read for absorbance values at 450 nm on a microplate reader, the curves for the inhibition of the binding of the ligands to the receptors were fitted with software, and the IC₅₀ values were calculated.

[5] = target: T4, BAFF (ACROBiosystems, BAF-H5248) (UniProt Q9Y275 134-285); experiment: ELISA, fusion protein coated, BAFF titrated, Anti-His-HRP
T4 construct: Bought protein used in the ELISA with coated test sample
Method: The binding activity of the TACI fusion proteins for BAFF and APRIL was assayed by the ELISA method (coating a test fusion protein sample). The specific procedures were as follows:
The test sample was diluted to 2 μg/mL with a PBS (BasalMedia, B320) buffer at pH 7.4 and added to a 96-well microplate (Corning, 3590) at 100 μL/well. The plate was incubated at 4° C. overnight. After the liquid was discarded, 300 μL of 5% skim milk (BD, 232100) diluted with PBS was added to each well for blocking, and the plate was incubated at 37° C. for 2 h. After the blocking was completed, the blocking solution was discarded, and the plate was washed 3 times with a PBST buffer (PBS at pH 7.4 containing 0.1% tween-20). 100 μL of BAFF (ACROBiosystems, BAF-H5248) or APRIL (R&D Systems, 5860-AP-010/CF) diluted in a gradient was added to each well, and the plate was incubated at 37° C. for 1 h. After the incubation, the plate was washed 3 times with PBST. When detecting the binding to BAFF, 100 μL of Anti-His-HRP (Sino biological, 105327-MM02T-H, diluted at a ratio of 1:2000) was added to each well; when detecting the binding to APRIL, 100 μL of anti-HA-HRP (Abcam, ab1190, diluted at a ratio of 1:4000) was added to each well. The plate was incubated at 37° C. for 1 h. The plate was washed 3 times with PBST. 100 μL of TMB chromogenic substrate (KPL, 5120-0077) was added to each well, and the plate was incubated at room temperature for 10-15 min. The reaction was stopped by adding 50 μL of 1 M H₂SO₄ to each well. The plate was read for absorbance values at 450 nm on a microplate reader, the binding curves of the antibodies to an antigen were fitted with software, and the EC₅₀ values were calculated.

- IC50 (nM) for the inhibition of the BAFF-induced B cell proliferation [1]: 0.386 nM
- IC50 (nM) for the inhibition of the APRIL-induced B cell proliferation [2]: 1.09 nM
- binding result [3]: no binding
- IC50 [4]: 19.2 nM
- EC50 [5]: 96.2 nM
B1: RCT-18 (Telitacicept) (Fc fusion)
chain: SRVDQEERFPQGLWTGVAMRSCPEEQYWDPLLGTCMSCKTICNHQSQRTCAAFCRSLSCRKEQGKFYDHLLRDCISCASICGQHPKQCAYFCENKLRSPVNLPPELDKTHTCPPCPAPEAEGAPSVFLFPPKPKDTLMISRTPEVTCVVVDVSHEDPEVKFNWYVDGVEVHNAKTKPREEQYNSTYRVVSVLTVLHQDWLNGKEYKCKVSNKALPSSIEKTISKAKGQPREPQVYTLPPSRDELTKNQVSLTCLVKGFYPSDIAVEWESNGQPENNYKTTPPVLDSDGSFFLYSKLTVDKSRWQQGNVFSCSVMHEALHNHYTQKSLSLSPGK
notes: Positive control; TACI part is positions 13-118 of the extracellular region of human TACI, the rest is Fc

From patent US20240301031A1 (JIANGSU HENGRUI PHARMACEUTICALS, published 2024)
